According to patent publication US9260500B2, “Peptide and use thereof” (Takeda Pharmaceutical Company Limited, priority 2009, dated 2016):
Non-standard residues stand in square brackets, D forms with d. *: point of attachment. Imidazole4carbonyl = O=C(c1cnc[nH]1)*; tBuAla = CC(C)(C)C[C@H](N)C(=O)O; αMeF = C[C@](N)(Cc1ccccc1)C(=O)O; 4Pal = N[C@@H](Cc1ccncc1)C(=O)O; dHyp = O=C(O)[C@H]1C[C@H](O)CN1; Cha = N[C@@H](CC1CCCCC1)C(=O)O; Isonicotinoyl = O=C(c1ccncc1)*; Iva = CC[C@](C)(N)C(=O)O; Nle = CCCC[C@H](N)C(=O)O; Aib = CC(C)(N)C(=O)O

Legend:
human Y2 receptor [1] = molecular target: T1, human Y2 receptor (Homo sapiens, UniProt P49146); test: Receptor Binding Assay (RBA) for Human Y2, [125I]-PYY displacement on hY2R/CHO membrane fraction; settings: IC50 of test compound/IC50 of PYY(3-36) (PYY(3-36) taken as 1)
T1 construct: expressed in transfected cells; membrane fraction
T1 sequence (P49146 1-381): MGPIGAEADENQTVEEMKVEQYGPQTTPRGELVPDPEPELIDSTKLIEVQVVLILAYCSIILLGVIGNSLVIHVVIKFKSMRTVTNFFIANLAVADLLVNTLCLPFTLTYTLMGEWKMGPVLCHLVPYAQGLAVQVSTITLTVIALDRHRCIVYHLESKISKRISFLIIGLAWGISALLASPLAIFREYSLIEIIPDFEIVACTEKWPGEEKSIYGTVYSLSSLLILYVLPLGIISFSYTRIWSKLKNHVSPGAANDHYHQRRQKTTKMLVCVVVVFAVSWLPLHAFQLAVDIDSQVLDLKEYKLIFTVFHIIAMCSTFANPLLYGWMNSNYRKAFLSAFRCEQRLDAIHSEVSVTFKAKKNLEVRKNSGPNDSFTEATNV
Method in brief: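 hY2R stably expressed in CHO/dhfr− cells; membrane fraction prepared from cells disrupted in 10 mM NaHCO3, 5 mM EDTA buffer with protease inhibitors. Binding read as displacement of [125I]-PYY.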

human Y2 receptor [2] = molecular target: T1, human Y2 receptor; test: Human Y2 Receptor G Protein Binding Assay (GBA), [35S]GTPγS; assay type: biochemical; settings: EC50 of test compound/EC50 of PYY(3-36) (PYY3-36 taken as 1), hY2R/CHO membrane fraction
Method in brief: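 Agonism measured as [35S]GTPγS binding, read by GF/C filtration and scintillation counting after 120 min at room temperature, using human Y2 membranes at 1 μg protein/mL in pH 7.4 Tris/MgCl2/NaCl/GDP buffer. Compound serially diluted 100 μM–1 nM; EC50 normalized to PYY(3-36) (ratio = compound/PYY).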

male C57EL/6J mice = test: 3-Days Continuous Subcutaneous Administration Test-1 (food intake suppressing activity); assay type: in vivo, mouse; settings: 0.03 mg/kg/day, subcutaneous Alzet pump, food consumption over 3 days; relative to food intake suppression rate for PYY(3-36) (1 mg/kg/day) taken as 100%
Protocol: (4) Test Method: 3-Days Continuous Subcutaneous Administration Test-1
The food intake suppressing activity of the compound of the present invention was examined by the method described below.
The test compound was dissolved in 50% DMSO so that sustained release would occur at 0.03 mg/kg/day, and the solution was filled in the Alzet Pump (Alzet model: 1003D, sustained release rate: 1 μL/hr, capacity: 100 μL). After the filling, the pump was placed in a 2 mL Eppendorf tube containing 330 μL of physiological saline, and incubated at 37° C. for 2 hours or more. Thereafter, this pump was subcutaneously embedded in the back of each mouse by the method described below. After weighing, each male […] mice at 12-13 weeks of age (25° C., allowed to take food and water ad libitum; 12-hour bright-12-hour dark cycle, lighting turned on at 08:00) was anesthetized with diethyl ether; the skin in the upper back thereof was incised, and the above-mentioned pump was embedded subcutaneously. Thereafter, several drops of penicillin solution (100000 units/mL) were added to the incised part, and the incision was sutured using Michel's surgical needle. This mouse was returned to the rearing cage (reared alone), and given previously weighed food; 3 days later, the amount of remaining food was measured. Food consumption was calculated by subtracting the amount of remaining food after 3 days from the weight of the food given on the day of pump embedding. The food intake suppressing activity of each test compound was expressed as a food intake suppression rate (%) relative to the food intake suppression rate for PYY(3-36) (1 mg/kg/day) taken as 100%.

Substance | RBA IC50 Ratio (human Y2 receptor [1]) | GBA EC50 Ratio (human Y2 receptor [2]) | food intake suppression rate (%) (male C57EL/6J mice)
4-Imidazolecarbonyl-[D-Hyp24, Iva25, Pya(4)26, Cha27,36, Aib28,31, Lys30]-PYY(23-36) (Imidazole4carbonyl-S[dHyp][Iva][4Pal][Cha][Aib]NK[Aib]TRQR[Cha]-NH2; SMILES CC[C@](C)(NC(=O)[C@H]1C[C@H](O)CN1C(=O)[C@H](CO)NC(=O)c1cnc[nH]1)C(=O)N[C@@H](Cc1ccncc1)C(=O)N[C@@H](CC1CCCCC1)C(=O)NC(C)(C)C(=O)N[C@@H](CC(N)=O)C(=O)N[C@@H](CCCCN)C(=O)NC(C)(C)C(=O)N[C@H](C(=O)N[C@@H](CCCNC(=N)N)C(=O)N[C@@H](CCC(N)=O)C(=O)N[C@@H](CCCNC(=N)N)C(=O)N[C@@H](CC1CCCCC1)C(N)=O)[C@@H](C)O) [compound No. 299] | 1.3 | 0.92 | 46
4-Imidazolecarbonyl-[D-Hyp24, Iva25, Pya(4)26, Cha27,36, Leu(Me)28, Lys30, Aib31]-PYY(23-36) (Imidazole4carbonyl-S[dHyp][Iva][4Pal][Cha][tBuAla]NK[Aib]TRQR[Cha]-NH2; ends and bridges not checked) [compound No. 336] | 0.75 | 1.4 | 52
4-Imidazolecarbonyl-[D-Hyp24, Iva25, Pya(4)26, Cha27,36, αMePhe28, Lys30, Aib31]-PYY(23-36) (Imidazole4carbonyl-S[dHyp][Iva][4Pal][Cha][αMeF]NK[Aib]TRQR[Cha]-NH2; SMILES CC[C@](C)(NC(=O)[C@H]1C[C@H](O)CN1C(=O)[C@H](CO)NC(=O)c1cnc[nH]1)C(=O)N[C@@H](Cc1ccncc1)C(=O)N[C@@H](CC1CCCCC1)C(=O)N[C@@](C)(Cc1ccccc1)C(=O)N[C@@H](CC(N)=O)C(=O)N[C@@H](CCCCN)C(=O)NC(C)(C)C(=O)N[C@H](C(=O)N[C@@H](CCCNC(=N)N)C(=O)N[C@@H](CCC(N)=O)C(=O)N[C@@H](CCCNC(=N)N)C(=O)N[C@@H](CC1CCCCC1)C(N)=O)[C@@H](C)O) [compound No. 343] | 0.65 | 1.0 | 15
4-Imidazolecarbonyl-[D-Pro24, Iva25, Pya(4)26, Cha27,30,36, Aib28,31]-PYY(23-36) (Imidazole4carbonyl-S[dP][Iva][4Pal][Cha][Aib]N[Cha][Aib]TRQR[Cha]-NH2; SMILES CC[C@](C)(NC(=O)[C@H]1CCCN1C(=O)[C@H](CO)NC(=O)c1cnc[nH]1)C(=O)N[C@@H](Cc1ccncc1)C(=O)N[C@@H](CC1CCCCC1)C(=O)NC(C)(C)C(=O)N[C@@H](CC(N)=O)C(=O)N[C@@H](CC1CCCCC1)C(=O)NC(C)(C)C(=O)N[C@H](C(=O)N[C@@H](CCCNC(=N)N)C(=O)N[C@@H](CCC(N)=O)C(=O)N[C@@H](CCCNC(=N)N)C(=O)N[C@@H](CC1CCCCC1)C(N)=O)[C@@H](C)O) [compound No. 318] | 2.3 | 1.9 | 18
4-Imidazolecarbonyl-[D-Pro24, Iva25, Pya(4)26, Cha27,36, Aib28,31, Lys30]-PYY(23-36) (Imidazole4carbonyl-S[dP][Iva][4Pal][Cha][Aib]NK[Aib]TRQR[Cha]-NH2; SMILES CC[C@](C)(NC(=O)[C@H]1CCCN1C(=O)[C@H](CO)NC(=O)c1cnc[nH]1)C(=O)N[C@@H](Cc1ccncc1)C(=O)N[C@@H](CC1CCCCC1)C(=O)NC(C)(C)C(=O)N[C@@H](CC(N)=O)C(=O)N[C@@H](CCCCN)C(=O)NC(C)(C)C(=O)N[C@H](C(=O)N[C@@H](CCCNC(=N)N)C(=O)N[C@@H](CCC(N)=O)C(=O)N[C@@H](CCCNC(=N)N)C(=O)N[C@@H](CC1CCCCC1)C(N)=O)[C@@H](C)O) [compound No. 300] | 0.77 | 0.91 | 35
4-Imidazolecarbonyl-[D-Pro24, Nle25, Pya(4)26, Cha27,36, Aib28,31, Lys30]-PYY(23-36) (Imidazole4carbonyl-S[dP][Nle][4Pal][Cha][Aib]NK[Aib]TRQR[Cha]-NH2; SMILES CCCC[C@H](NC(=O)[C@H]1CCCN1C(=O)[C@H](CO)NC(=O)c1cnc[nH]1)C(=O)N[C@@H](Cc1ccncc1)C(=O)N[C@@H](CC1CCCCC1)C(=O)NC(C)(C)C(=O)N[C@@H](CC(N)=O)C(=O)N[C@@H](CCCCN)C(=O)NC(C)(C)C(=O)N[C@H](C(=O)N[C@@H](CCCNC(=N)N)C(=O)N[C@@H](CCC(N)=O)C(=O)N[C@@H](CCCNC(=N)N)C(=O)N[C@@H](CC1CCCCC1)C(N)=O)[C@@H](C)O) [compound No. 302] | 1.7 | 1.2 | 22
4-Imidazolecarbonyl-[D-Pro24, Pya(4)26, Cha27,36, Aib28,31, Lys30]-PYY(23-36) (Imidazole4carbonyl-S[dP]R[4Pal][Cha][Aib]NK[Aib]TRQR[Cha]-NH2; SMILES C[C@@H](O)[C@H](NC(=O)C(C)(C)NC(=O)[C@H](CCCCN)NC(=O)[C@H](CC(N)=O)NC(=O)C(C)(C)NC(=O)[C@H](CC1CCCCC1)NC(=O)[C@H](Cc1ccncc1)NC(=O)[C@H](CCCNC(=N)N)NC(=O)[C@H]1CCCN1C(=O)[C@H](CO)NC(=O)c1cnc[nH]1)C(=O)N[C@@H](CCCNC(=N)N)C(=O)N[C@@H](CCC(N)=O)C(=O)N[C@@H](CCCNC(=N)N)C(=O)N[C@@H](CC1CCCCC1)C(N)=O) [compound No. 213] | 0.76 | 1.1 | 33
4-Imidazolecarbonyl-[Glu23, D-Pro24, Pya(4)26, Cha27,36, Aib28,31, Lys30]-PYY(23-36) (Imidazole4carbonyl-E[dP]R[4Pal][Cha][Aib]NK[Aib]TRQR[Cha]-NH2; SMILES C[C@@H](O)[C@H](NC(=O)C(C)(C)NC(=O)[C@H](CCCCN)NC(=O)[C@H](CC(N)=O)NC(=O)C(C)(C)NC(=O)[C@H](CC1CCCCC1)NC(=O)[C@H](Cc1ccncc1)NC(=O)[C@H](CCCNC(=N)N)NC(=O)[C@H]1CCCN1C(=O)[C@H](CCC(=O)O)NC(=O)c1cnc[nH]1)C(=O)N[C@@H](CCCNC(=N)N)C(=O)N[C@@H](CCC(N)=O)C(=O)N[C@@H](CCCNC(=N)N)C(=O)N[C@@H](CC1CCCCC1)C(N)=O) [compound No. 216] | 1.3 | 1.3 | 36
4-Pyridinecarbonyl-[D-Hyp24, Iva25,28, Pya(4)26, Cha27,36, Lys30, Aib31]-PYY (23-36) (Isonicotinoyl-S[dHyp][Iva][4Pal][Cha][Iva]NK[Aib]TRQR[Cha]-NH2; SMILES CC[C@](C)(NC(=O)[C@H](CC1CCCCC1)NC(=O)[C@H](Cc1ccncc1)NC(=O)[C@](C)(CC)NC(=O)[C@H]1C[C@H](O)CN1C(=O)[C@H](CO)NC(=O)c1ccncc1)C(=O)N[C@@H](CC(N)=O)C(=O)N[C@@H](CCCCN)C(=O)NC(C)(C)C(=O)N[C@H](C(=O)N[C@@H](CCCNC(=N)N)C(=O)N[C@@H](CCC(N)=O)C(=O)N[C@@H](CCCNC(=N)N)C(=O)N[C@@H](CC1CCCCC1)C(N)=O)[C@@H](C)O) [compound No. 334] | 1.3 | 1.6 | 14
